Measured values from patent US20010039258A1, “Active agent transport systems” (Emisphere Technologies, Inc., priority 1990, published 2001).
Bridge positions count the residues as written; N and C are the ends. Ends that are not written are not given here.

Legend:
[1] = DSC of rhGh, effect of ionic strength; assay type: physicochemical; conditions: pH 7.5
[2] = DSC of rhGh, effect of pH; assay type: physicochemical
Experimental: (§1) Scanning calorimetry was performed using 5 mg 0.83 mM porcine insulin (MW 6,000) per mL in 50 mM phosphate buffer, pH 7.5. All thermograms were performed on a Microcal MC-2 scanning calorimeter equipped with the DA2 data acquisition system operated in the upscale mode at 1° C./min (up to 90° C.), and data points were collected at 20 second intervals. All scans were initiated at least 20 degrees below the observed transitions for the active agent. All thermograms were corrected for baseline subtraction and normalized for the concentration of macromolecule. According to the methods of the Johns Hopkins Biocalorimetry Center, See, for example, Ramsay et al. Biochemistry (1990) 29:8677-8693; Schon et al. Biochemistry (1989) 28:5019-5024 (1990) 29: 781-788.
5 mg/mL rhGh were dissolved in buffer (0.17 mM in 50 mM phosphate buffer, assuming a molecular weight of 20,000). The pH of the solution was adjusted to the desired value, and all curves were corrected by baseline subtraction.
The effect of pH on structure was assessed by DSC according to the procedure of Example 9 where individual solutions were prepared in phosphate buffer ranging in pH value from 2.0 to 6.0.

[3] = DSC of rhGh, effect of GuHCl; assay type: physicochemical; conditions: pH 7.5
Experimental: as §1
An initial scan of rhGh was performed at 10 mg/mL in the absence of GuHCl (0.33 mM assuming 20,000 molecular weight). Subsequently, the concentration of rhGh was lowered to 5 mg/mL (0.17 mM) in 50 mM phosphate buffer, pH 7.5 containing varying concentrations of GuHCl. Each subsequent thermogram was corrected by background subtraction of a 0.5 M guanidine-phosphate buffer solution. The thermograms were corrected by subtraction of a 0.5M NaCl-phosphate buffer blank. Scans were performed according to the procedure of Example 9.

[4] = In vivo delivery of rhGH in rats, sublingual, intranasal, oral; conditions: rat, no carrier, drug dose 6 mg/kg
Experimental: Dosing compositions were prepared by mixing the modified amino acids and recombinant human growth hormone (rhGH) as listed in Table 16 below in a phosphate buffer solution at a pH of about 7-8.
Rats were administered the dosing composition by sublingual or intranasal administration. Delivery was evaluated by using an ELISA assay for rhGH from Medix Biotech, Inc. For intracolonic administration, a sample was prepared and dosed to fasted rats at 25 mg/kg of carrier in a buffered solution containing propylene glycol (0-50%) and 1 mg/kg rhGH.
rhGH ([…]) was administered by oral gavage to a rat, and delivery was evaluated according to the procedure of Example 41A.

[5] = In vivo rhGH in rats, subcutaneous, with delivery agents; set-up: species or system Sprague-Dawley rats; conditions: rat; no delivery agent (Example 43A)
Experimental: (§2) The delivery agents were reconstituted with distilled water and adjusted to pH 7.2-8.0 with either aqueous hydrochloric acid or aqueous sodium hydroxide. A stock solution of rhGH was prepared by mixing rhGH, D-mannitol and glycine and dissolving this mixture in 2% glycerol/water. The stock solution was then added to the delivery agent solution. Several delivery agent to active agent ratios were studied.
Male Sprague-Dawley rats weighing 200-250 g were fasted for 24 hours and administered ketamine (44 mg/kg) and chlorpromazine (1.5 mg/kg) 15 minutes prior to dosing. The rats were administered one of the dosing solutions described above by subcutaneous injection, intranasal instillation, or sublingual instillation. Blood samples were collected serially from the tail artery for serum calcium concentration determination or serum rhGH concentrations. The dose of rhGH administered in these experiments was 0.1 mg/kg.
Serum rhGH concentrations were quantified by an rhGH enzyme immunoassay test kit.
rhGH (1 mg/kg) was administered by oral gavage to a rat, and delivery was evaluated according to the procedure of Example 43.

[6] = DSC of rhGh, effect of pH; assay type: physicochemical; conditions: pH 7.5 (10 mg/mL)
serum calcium = test: In vivo salmon calcitonin in rats, subcutaneous, with delivery agents; set-up: species or system Sprague-Dawley rats; conditions: sCT 0.2 μg/kg, no delivery agent (Example 55A)
Experimental: as §2, with “sCT” for “rhGH”, “by” for “by mixing rhGH, D-mannitol and glycine and”, “sCT” for “this mixture”, “citric acid (0.085N).” for “2% glycerol/water.”, “Several different” for “Several”
Male Sprague-Dawley rats weighing 200-250 g were fasted for 24 hours and administered ketamine (44 mg/kg) and chlorpromazine (1.5 mg/kg) 15 minutes prior to dosing. The rats were administered one of the dosing solutions described above by subcutaneous injection. Blood samples were collected serially from the tail artery for serum calcium concentration.
Serum calcium concentrations were quantified by the o-cresolphthalein complexone method (Sigma) using a UV/VIS spectrophotometer (Perkin Elmer).
Salmon calcitonin was administered by oral gavage to rats, and delivery was evaluated according to the Procedure of Example 55.

rhGh: recombinant human growth hormone
Tm (Cp, max) ([1]; 0.0 M NaCl): 75.2 °C | ΔH° ([1]; 0.0 M NaCl): 191.0 kcal/mol | Tm (Cp, max) ([1]; 0.5 M NaCl): 75.8 °C | ΔH° ([1]; 0.5 M NaCl): 89.7 kcal/mol | ΔH° ([1]; 1.0 M NaCl): 50.5 kcal/mol | Tm (Cp, max) ([1]; 10.0 M NaCl): 76.5 °C | Tm (Cp, max) ([2]; pH 2.0): no transition observed | ΔH° ([2]; pH 2.0): no transition observed | Tm (Cp, max) ([2]; pH 3.0): no transition observed | ΔH° ([2]; pH 3.0): no transition observed | Tm (Cp, max) ([2]; pH 3.5): no transition observed | ΔH° ([2]; pH 3.5): no transition observed | Tm (Cp, max) ([2]; pH 4.0): ≈73.0 °C | ΔH° ([2]; pH 4.0): broad transition | Tm (Cp, max) ([2]; pH 5.0): 75.0 °C | ΔH° ([2]; pH 5.0): 161 kcal/mol | Tm (Cp, max) ([2]; pH 6.0): 75.2 °C | ΔH° ([2]; pH 6.0): 191 kcal/mol | DOMAIN A Tm (Cp, max) ([3]; 0.5 M GuHCl): 71.5 °C | DOMAIN B Tm (Cp, max) ([3]; 0.5 M GuHCl): not defined, | ΔH° ([3]; 0.5 M GuHCl): 48 kcal/mol | DOMAIN A Tm (Cp, max) ([3]; 1.0 M GuHCl): 70.9 °C | DOMAIN B Tm (Cp, max) ([3]; 1.0 M GuHCl): absent | ΔH° ([3]; 1.0 M GuHCl): 109 kcal/mol | DOMAIN A Tm (Cp, max) ([3]; 1.5 M GuHCl): 69.7 °C | DOMAIN B Tm (Cp, max) ([3]; 1.5 M GuHCl): absent | ΔH° ([3]; 1.5 M GuHCl): 12 kcal/mol | DOMAIN A Tm (Cp, max) ([3]; 2.0 M GuHCl): 70.0 °C | DOMAIN B Tm (Cp, max) ([3]; 2.0 M GuHCl): absent | ΔH° ([3]; 2.0 M GuHCl): 58 kcal/mol | DOMAIN A Tm (Cp, max) ([3]; 2.5 M GuHCl): 70.7 °C | DOMAIN B Tm (Cp, max) ([3]; 2.5 M GuHCl): absent | ΔH° ([3]; 2.5 M GuHCl): 99 kcal/mol | DOMAIN A Tm (Cp, max) ([3]; no GuHCl, rhGh 10 mg/mL): 72.6 °C | DOMAIN B Tm (Cp, max) ([3]; no GuHCl, rhGh 10 mg/mL): 74.3 °C | ΔH° ([3]; no GuHCl, rhGh 10 mg/mL): 632 kcal/mol | Mean Peak Serum Levels of rhGH [4]: <10 ± 10 ng/mL | Peak Serum [rhGH] [5]: 4 ± 2 ng/mL | Tm (Cp, max), transition a) [6]: a) 73 °C | Tm (Cp, max), transition b) [6]: b) 75 °C | ΔH°, (a) + (b) [6]: (a) + (b) = 632 kcal/mol

sCT: Salmon Calcitonin (CSNLSTCVLGKLSQELHKLQTYPRTNTGSGTP-NH2; disulfide 1-7; ends not checked)
Percent Decrease in Serum Calcium (serum calcium): 17 ± 2%
